From the supplement of paper PMC10065799, “High-throughput profiling of sequence recognition by tyrosine kinases and SH2 domains using bacterial peptide display” (eLife, 2023)

Columns and labels:
FGFR3 = FGFR3 (UniProt P22607); test: phosphorylation enrichment, bacterial display (enrichment ratio); higher = better substrate or ligand; peptides without Tyr show the background
Jak2 = Jak2 (UniProt O60674); test: as above
AncSZ = test: as above
Fes = Fes (UniProt P07332); test: as above
MERTK = MERTK (UniProt Q12866); test: as above
EPHB2 = EPHB2 (UniProt P29323); test: as above
c-Abl (mouse) = test: as above
c-Src = test: as above
EPHB1 = EPHB1 (UniProt P54762); test: as above
EPHB1, sequence (P54762 whole entry, looked up): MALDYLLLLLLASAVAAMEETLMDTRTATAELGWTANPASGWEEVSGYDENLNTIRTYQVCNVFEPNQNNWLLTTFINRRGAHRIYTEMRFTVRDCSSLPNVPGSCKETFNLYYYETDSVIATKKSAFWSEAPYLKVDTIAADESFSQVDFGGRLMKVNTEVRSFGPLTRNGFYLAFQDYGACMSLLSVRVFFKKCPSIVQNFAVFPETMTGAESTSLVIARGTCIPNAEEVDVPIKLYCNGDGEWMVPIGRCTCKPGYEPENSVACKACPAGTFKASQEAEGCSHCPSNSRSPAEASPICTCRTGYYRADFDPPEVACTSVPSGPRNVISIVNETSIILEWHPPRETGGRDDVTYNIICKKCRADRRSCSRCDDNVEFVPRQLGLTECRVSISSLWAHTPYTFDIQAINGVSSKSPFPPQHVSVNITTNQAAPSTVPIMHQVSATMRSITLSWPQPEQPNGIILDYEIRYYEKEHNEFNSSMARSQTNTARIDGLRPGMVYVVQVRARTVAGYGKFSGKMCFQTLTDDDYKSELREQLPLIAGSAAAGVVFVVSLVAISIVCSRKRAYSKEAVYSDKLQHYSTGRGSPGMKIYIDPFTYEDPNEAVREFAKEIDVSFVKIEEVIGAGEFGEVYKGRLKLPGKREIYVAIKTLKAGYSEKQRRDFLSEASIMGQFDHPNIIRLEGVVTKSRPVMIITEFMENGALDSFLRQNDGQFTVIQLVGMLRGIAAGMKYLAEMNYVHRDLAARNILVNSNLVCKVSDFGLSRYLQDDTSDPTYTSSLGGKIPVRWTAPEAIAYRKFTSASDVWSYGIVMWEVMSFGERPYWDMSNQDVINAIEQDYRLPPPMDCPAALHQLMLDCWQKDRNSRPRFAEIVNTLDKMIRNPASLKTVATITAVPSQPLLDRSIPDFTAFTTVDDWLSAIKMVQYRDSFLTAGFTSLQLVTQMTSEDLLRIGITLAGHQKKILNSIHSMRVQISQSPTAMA

FGFR1 = FGFR1 (UniProt P11362); test: as above
FGFR1, sequence (P11362 whole entry, looked up): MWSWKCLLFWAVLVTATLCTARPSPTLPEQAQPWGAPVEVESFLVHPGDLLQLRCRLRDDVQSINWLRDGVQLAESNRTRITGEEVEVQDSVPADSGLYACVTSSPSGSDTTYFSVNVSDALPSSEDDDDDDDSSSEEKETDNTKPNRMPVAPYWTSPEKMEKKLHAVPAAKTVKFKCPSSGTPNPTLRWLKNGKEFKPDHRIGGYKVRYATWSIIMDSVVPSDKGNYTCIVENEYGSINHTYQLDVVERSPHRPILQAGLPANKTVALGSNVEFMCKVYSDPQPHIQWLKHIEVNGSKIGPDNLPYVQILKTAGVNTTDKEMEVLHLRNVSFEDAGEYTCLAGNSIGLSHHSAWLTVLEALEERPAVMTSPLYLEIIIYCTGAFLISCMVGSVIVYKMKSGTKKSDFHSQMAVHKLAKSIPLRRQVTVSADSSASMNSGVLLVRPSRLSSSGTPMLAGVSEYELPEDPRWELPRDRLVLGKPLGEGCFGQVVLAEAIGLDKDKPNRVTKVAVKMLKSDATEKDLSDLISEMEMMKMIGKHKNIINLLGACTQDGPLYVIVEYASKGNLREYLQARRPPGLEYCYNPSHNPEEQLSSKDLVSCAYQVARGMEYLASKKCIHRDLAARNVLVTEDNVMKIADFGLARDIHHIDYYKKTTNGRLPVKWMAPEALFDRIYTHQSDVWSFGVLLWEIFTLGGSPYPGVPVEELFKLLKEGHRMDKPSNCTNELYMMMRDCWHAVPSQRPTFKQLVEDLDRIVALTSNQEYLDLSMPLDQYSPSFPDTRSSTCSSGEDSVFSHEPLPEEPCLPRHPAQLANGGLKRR

Fer (mouse) = test: as above
Hck = Hck (UniProt P08631); test: as above
Hck, sequence (P08631 whole entry, looked up): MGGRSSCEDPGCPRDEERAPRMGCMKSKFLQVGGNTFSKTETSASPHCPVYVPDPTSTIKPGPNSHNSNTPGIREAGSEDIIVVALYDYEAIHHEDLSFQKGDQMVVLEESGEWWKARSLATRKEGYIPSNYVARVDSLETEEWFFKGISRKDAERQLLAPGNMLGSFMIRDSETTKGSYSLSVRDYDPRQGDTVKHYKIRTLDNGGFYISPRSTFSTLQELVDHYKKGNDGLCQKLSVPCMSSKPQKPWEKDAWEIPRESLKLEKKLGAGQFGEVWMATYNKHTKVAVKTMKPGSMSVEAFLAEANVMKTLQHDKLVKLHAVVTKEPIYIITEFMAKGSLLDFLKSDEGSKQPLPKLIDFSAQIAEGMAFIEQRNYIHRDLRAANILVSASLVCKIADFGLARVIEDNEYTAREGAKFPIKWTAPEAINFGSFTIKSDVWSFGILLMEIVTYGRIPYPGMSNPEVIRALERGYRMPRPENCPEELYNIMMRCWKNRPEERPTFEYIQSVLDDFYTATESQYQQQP

Fyn = Fyn (UniProt P06241); test: as above
Fyn, sequence (P06241 whole entry, looked up): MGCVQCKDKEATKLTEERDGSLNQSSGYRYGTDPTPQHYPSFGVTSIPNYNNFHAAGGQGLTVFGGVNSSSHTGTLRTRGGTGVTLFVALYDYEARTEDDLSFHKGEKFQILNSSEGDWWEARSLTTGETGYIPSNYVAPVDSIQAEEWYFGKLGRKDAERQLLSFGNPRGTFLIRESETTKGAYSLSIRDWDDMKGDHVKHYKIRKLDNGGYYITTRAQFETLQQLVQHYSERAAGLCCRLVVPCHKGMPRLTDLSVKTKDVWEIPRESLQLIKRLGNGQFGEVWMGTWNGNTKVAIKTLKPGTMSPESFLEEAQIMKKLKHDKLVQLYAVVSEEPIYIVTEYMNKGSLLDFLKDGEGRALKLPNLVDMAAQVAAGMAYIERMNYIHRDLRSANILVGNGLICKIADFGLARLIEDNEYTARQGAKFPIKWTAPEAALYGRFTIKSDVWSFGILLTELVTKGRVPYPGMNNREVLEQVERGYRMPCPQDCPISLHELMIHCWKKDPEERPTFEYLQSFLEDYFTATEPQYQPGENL

Grb2 SH2 = Grb2 SH2 (UniProt P62993); test: SH2 binding enrichment of the phosphorylated peptide, bacterial display (enrichment ratio); higher = better substrate or ligand; peptides without Tyr show the background
Grb2 SH2, sequence (P62993 whole entry, looked up): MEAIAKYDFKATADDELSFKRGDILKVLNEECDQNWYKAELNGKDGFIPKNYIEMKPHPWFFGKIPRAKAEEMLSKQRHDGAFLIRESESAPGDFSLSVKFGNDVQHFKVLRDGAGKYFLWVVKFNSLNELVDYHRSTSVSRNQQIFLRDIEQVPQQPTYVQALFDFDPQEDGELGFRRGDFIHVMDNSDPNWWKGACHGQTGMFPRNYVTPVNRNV

SHP2-C SH2 = test: as above
c-Src SH2 = test: as above
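Throughout, for SH2 binding enrichment of the phosphorylated peptide, bacterial display: peptide library displayed on the E. coli surface as eCPX fusions, selected cells deep-sequenced, score is each peptide's frequency after selection divided by its frequency in the input.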
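Throughout, for phosphorylation enrichment, bacterial display: 11-residue human phosphosite peptides and single-mutation variants displayed on the E. coli surface, counted by deep sequencing, each peptide's frequency after selection divided by its frequency in the unselected input library; frequency after pTyr selection over input frequency; kinase dosed for 20-30% of maximal phosphorylation in three min.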

Jak2, sequence (O60674 whole entry, looked up): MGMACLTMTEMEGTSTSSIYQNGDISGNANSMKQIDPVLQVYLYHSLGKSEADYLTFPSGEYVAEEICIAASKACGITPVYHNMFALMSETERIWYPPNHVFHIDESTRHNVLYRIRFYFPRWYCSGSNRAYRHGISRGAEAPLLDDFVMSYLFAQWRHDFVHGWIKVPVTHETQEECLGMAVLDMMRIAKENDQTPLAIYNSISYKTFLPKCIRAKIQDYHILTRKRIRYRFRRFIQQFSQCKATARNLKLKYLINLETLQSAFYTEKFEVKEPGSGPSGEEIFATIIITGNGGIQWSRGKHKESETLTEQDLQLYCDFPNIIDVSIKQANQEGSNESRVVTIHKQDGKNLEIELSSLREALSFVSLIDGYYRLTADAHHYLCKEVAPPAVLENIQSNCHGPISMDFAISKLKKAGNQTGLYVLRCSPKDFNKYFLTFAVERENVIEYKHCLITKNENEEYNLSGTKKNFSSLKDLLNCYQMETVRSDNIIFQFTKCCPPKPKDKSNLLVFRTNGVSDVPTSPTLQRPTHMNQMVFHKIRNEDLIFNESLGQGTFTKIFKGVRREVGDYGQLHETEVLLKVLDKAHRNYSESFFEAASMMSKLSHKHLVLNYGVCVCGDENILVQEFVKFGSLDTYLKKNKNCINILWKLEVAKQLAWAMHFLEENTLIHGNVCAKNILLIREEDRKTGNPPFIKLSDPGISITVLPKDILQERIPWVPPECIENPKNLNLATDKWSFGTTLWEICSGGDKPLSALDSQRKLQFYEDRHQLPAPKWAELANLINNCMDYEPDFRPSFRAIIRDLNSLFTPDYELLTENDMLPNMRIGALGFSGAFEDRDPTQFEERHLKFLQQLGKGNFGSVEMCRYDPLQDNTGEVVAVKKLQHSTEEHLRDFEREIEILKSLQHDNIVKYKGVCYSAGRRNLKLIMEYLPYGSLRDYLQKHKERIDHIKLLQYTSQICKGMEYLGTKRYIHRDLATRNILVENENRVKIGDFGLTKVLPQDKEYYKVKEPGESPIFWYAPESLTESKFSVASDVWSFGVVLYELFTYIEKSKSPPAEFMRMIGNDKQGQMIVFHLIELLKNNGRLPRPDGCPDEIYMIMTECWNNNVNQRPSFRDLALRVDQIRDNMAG
FGFR3, sequence (P22607 whole entry, looked up): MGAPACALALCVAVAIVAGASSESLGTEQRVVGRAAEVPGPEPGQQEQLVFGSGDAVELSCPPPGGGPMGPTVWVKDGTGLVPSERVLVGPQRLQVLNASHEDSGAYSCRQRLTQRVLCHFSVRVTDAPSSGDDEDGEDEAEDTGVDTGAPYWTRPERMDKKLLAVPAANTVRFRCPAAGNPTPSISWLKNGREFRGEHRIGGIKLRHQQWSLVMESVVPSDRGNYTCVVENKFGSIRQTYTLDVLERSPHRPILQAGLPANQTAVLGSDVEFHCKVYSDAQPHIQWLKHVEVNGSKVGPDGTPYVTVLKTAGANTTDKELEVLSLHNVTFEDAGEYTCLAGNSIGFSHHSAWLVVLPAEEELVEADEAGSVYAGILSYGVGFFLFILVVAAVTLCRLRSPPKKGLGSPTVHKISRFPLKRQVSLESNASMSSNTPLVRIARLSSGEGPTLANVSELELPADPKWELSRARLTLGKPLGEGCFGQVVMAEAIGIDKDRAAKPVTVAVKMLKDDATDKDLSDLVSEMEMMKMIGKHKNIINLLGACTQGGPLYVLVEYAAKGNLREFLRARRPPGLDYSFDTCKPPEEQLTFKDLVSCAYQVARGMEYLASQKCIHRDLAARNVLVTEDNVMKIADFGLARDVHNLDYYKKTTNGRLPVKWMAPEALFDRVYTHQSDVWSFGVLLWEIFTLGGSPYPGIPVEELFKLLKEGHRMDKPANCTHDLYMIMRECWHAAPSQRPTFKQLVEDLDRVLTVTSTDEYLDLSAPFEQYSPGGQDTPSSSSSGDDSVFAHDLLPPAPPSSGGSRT

Sequence | phosphorylation enrichment (FGFR3) | phosphorylation enrichment (Jak2) | phosphorylation enrichment (AncSZ) | phosphorylation enrichment (Fes) | phosphorylation enrichment (MERTK) | phosphorylation enrichment (EPHB2) | phosphorylation enrichment (c-Abl (mouse)) | phosphorylation enrichment (c-Src) | phosphorylation enrichment (EPHB1) | phosphorylation enrichment (FGFR1) | phosphorylation enrichment (Fer (mouse)) | phosphorylation enrichment (Hck) | phosphorylation enrichment (Fyn) | SH2 binding enrichment (Grb2 SH2) | SH2 binding enrichment (SHP2-C SH2) | SH2 binding enrichment (c-Src SH2)
RFLERYIFNRE [HLA-DPB1_Y57_YF] | 0.543 | 0.748 | 0.786 | 0.914 | 0.409 | 0.363 | 0.627 | 0.432 | 0.324 | 0.329 | 0.356 | 0.44 | 0.311 | 1.54 | 1.09 | 1.46
SPFEVYVDKSQ [FLNA_Y373] | 0.726 | 0.99 | 1.08 | 1.27 | 0.388 | 0.515 | 0.581 | 0.481 | 0.669 | 0.493 | 0.499 | 0.499 | 0.477 | 1.02 | 0.697 | 0.685
KSIDEYLKLVG [RASAL2_Y381_E379D] | 0.445 | 0.761 | 0.843 | 0.73 | 0.34 | 0.596 | 0.449 | 0.37 | 0.378 | 0.465 | 0.374 | 0.489 | 0.406 | 0.992 | 0.797 | 0.556
AAFNRYDQERF [CDC73_Y293_YF] | 0.504 | 0.609 | 0.665 | 0.856 | 0.398 | 0.473 | 0.684 | 0.427 | 0.402 | 0.394 | 0.463 | 0.397 | 0.469 | 0.866 | 0.549 | 0.448
PRLMLYNPTTY [EGFR_Y270_P266R] | 0.776 | 1.08 | 0.922 | 1.21 | 0.649 | 0.905 | 0.812 | 0.526 | 0.889 | 0.731 | 0.7 | 0.692 | 0.601 | 1.16 | 1.14 | 0.686
GGTPLYMDRQG [AGXT_Y194] | 0.47 | 0.513 | 0.606 | 0.614 | 0.409 | 0.501 | 0.499 | 0.505 | 0.465 | 0.401 | 0.431 | 1.26 | 0.516 | 0.76 | 0.685 | 0.448
STAPSYGNPSS [CD19_Y378_G373S] | 0.358 | 0.503 | 0.545 | 0.505 | 0.402 | 0.357 | 0.482 | 0.381 | 0.328 | 0.361 | 0.32 | 0.34 | 0.383 | 0.744 | 0.694 | 0.458
PDDPSYSLVDD [PSTPIP2_Y323_N322S] | 1.08 | 1.75 | 1.6 | 1.53 | 0.563 | 0.8 | 1.03 | 0.91 | 0.999 | 0.899 | 0.728 | 0.679 | 0.885 | 1.29 | 0.724 | 3.29
NTFEKYWLFFQ [GATM_Y103_P105L_YF] | 1 | 1.2 | 1.29 | 1.44 | 0.544 | 0.682 | 1 | 0.538 | 0.721 | 0.761 | 0.478 | 0.68 | 0.501 | 0.975 | 0.886 | 0.758
PQQLWYTHKKK [UBTF_Y207_E210K] | 0.589 | 1.07 | 1.14 | 1.14 | 1.22 | 1.14 | 0.981 | 0.7 | 0.774 | 0.888 | 0.598 | 0.821 | 0.52 | 0.592 | 0.702 | 0.515
QHVPDYRQNVY [PCDHGA1_Y890] | 0.626 | 0.76 | 0.742 | 0.829 | 0.478 | 0.563 | 0.66 | 0.723 | 0.544 | 0.497 | 0.517 | 0.665 | 0.673 | 0.886 | 0.638 | 0.483
LASSEYPVQRR [GALK1_Y236_R239Q] | 1.17 | 1.06 | 0.732 | 1.32 | 0.554 | 0.308 | 1.03 | 0.707 | 0.381 | 0.58 | 0.981 | 0.761 | 1.07 | 1.16 | 0.794 | 0.256
NTQRPHFKGGG [TYROBP_Y111_Y111H_YF] | 0.443 | 0.553 | 0.447 | 0.735 | 0.353 | 0.632 | 1.01 | 0.448 | 0.378 | 0.318 | 0.293 | 0.407 | 0.286 | 1.22 | 0.956 | 0.925
GGQDVYGDFGG [Probound] | 0.573 | 0.905 | 0.748 | 0.837 | 0.562 | 0.883 | 0.939 | 5.08 | 0.718 | 0.527 | 0.498 | 5.41 | 8.36 | 0.803 | 0.79 | 0.509
DMLTLYVNTAA [SMCHD1_Y403_Q400L] | 0.855 | 1.13 | 1.4 | 1.36 | 0.444 | 0.775 | 0.766 | 0.524 | 0.758 | 0.569 | 0.535 | 0.557 | 0.457 | 5.64 | 0.993 | 0.646
QNAGDYYDLYG [PTPN11_Y62_T59A] | 20.3 | 3.1 | 4.8 | 1.25 | 3 | 13.6 | 1.04 | 4.65 | 15.5 | 19.5 | 1.56 | 5.32 | 5.41 | 0.897 | 0.625 | 0.687
SSWPGYVRPLP [HSPB1_Y54] | 0.458 | 2.22 | 0.774 | 0.648 | 0.407 | 0.423 | 0.54 | 0.491 | 0.48 | 0.491 | 0.459 | 0.485 | 0.52 | 0.97 | 0.654 | 0.741

Sequence | phosphorylation enrichment (FGFR3) | phosphorylation enrichment (Jak2) | phosphorylation enrichment (AncSZ) | phosphorylation enrichment (Fes) | phosphorylation enrichment (MERTK) | phosphorylation enrichment (EPHB2) | phosphorylation enrichment (c-Abl (mouse)) | phosphorylation enrichment (c-Src) | phosphorylation enrichment (EPHB1) | phosphorylation enrichment (FGFR1) | phosphorylation enrichment (Fer (mouse)) | phosphorylation enrichment (Hck) | phosphorylation enrichment (Fyn) | SH2 binding enrichment (Grb2 SH2) | SH2 binding enrichment (SHP2-C SH2) | SH2 binding enrichment (c-Src SH2)
FGMQLYQKFMH [GRB14_Y347_N349K_YF] | 0.784 | 0.94 | 0.863 | 1 | 2.11 | 0.8 | 0.773 | 2.26 | 1.39 | 0.454 | 1.92 | 2.16 | 1.56 | 1.23 | 1.02 | 1.08
CTTIHYNYMGN [TP53_Y234_C238G] | 0.653 | 0.865 | 0.915 | 0.987 | 0.633 | 0.62 | 0.657 | 0.425 | 0.85 | 0.532 | 0.763 | 0.462 | 0.402 | 0.926 | 0.842 | 1.3
IKNSGYISQYL [EIF2AK3_Y585_R588Q] | 0.458 | 0.617 | 0.593 | 0.783 | 0.374 | 0.375 | 0.435 | 0.406 | 0.414 | 0.443 | 0.323 | 0.39 | 0.427 | 0.939 | 0.969 | 0.628
STKELYEKFMI | 0.492 | 0.619 | 0.725 | 0.857 | 0.872 | 0.414 | 0.6 | 1.01 | 0.411 | 0.409 | 6.97 | 1.01 | 0.724 | 0.915 | 0.709 | 0.615
SLLLSYYLIKW [NUP160_Y773_P768S] | 2.09 | 2.23 | 1.12 | 1.24 | 0.649 | 0.539 | 0.882 | 0.587 | 0.673 | 2.51 | 0.47 | 0.499 | 0.456 | 1.27 | 1.01 | 0.925
IGEGTYGVVFK [CDK2_Y15_YF] | 0.557 | 0.815 | 0.826 | 1.05 | 0.905 | 2.86 | 0.631 | 4.93 | 1.14 | 0.431 | 1.02 | 4.9 | 7.22 | 0.799 | 0.655 | 0.457
FLTSSYINIST [IL23R_Y178_YF] | 0.489 | 1.34 | 0.834 | 0.779 | 0.47 | 0.434 | 0.498 | 0.44 | 0.437 | 0.517 | 0.375 | 0.422 | 0.48 | 22.6 | 1.33 | 2.66
EDSEFYKAFEE [CASQ2_Y179_YF] | 0.739 | 1.07 | 1.2 | 1.21 | 0.454 | 0.659 | 0.693 | 0.567 | 0.534 | 0.482 | 0.4 | 0.543 | 0.442 | 0.767 | 0.671 | 0.506
KHCEDYVCSYN [DSC1_Y846] | 0.662 | 0.93 | 1.14 | 1.23 | 0.398 | 0.578 | 0.771 | 1.36 | 0.63 | 0.627 | 0.506 | 0.555 | 0.502 | 0.913 | 0.874 | 1.05
CTTIHYNCMCN [TP53_Y234_Y236C] | 0.715 | 0.885 | 1.06 | 1.08 | 0.426 | 0.712 | 0.689 | 0.468 | 0.591 | 0.417 | 0.541 | 0.475 | 0.45 | 0.775 | 0.823 | 0.508
GGGFGYQKTKK [DDX18_Y643] | 0.422 | 0.814 | 0.328 | 0.52 | 0.308 | 0.318 | 0.556 | 0.3 | 0.252 | 0.371 | 0.343 | 0.379 | 0.315 | 1.05 | 0.808 | 0.712
QNTADYFDLFG [PTPN11_Y62_G60A_YF] | 16.9 | 6.89 | 5.82 | 1.53 | 0.691 | 13.8 | 1.13 | 0.693 | 15.8 | 17.9 | 0.951 | 0.722 | 1.32 | 0.924 | 0.564 | 0.558
VGTTAYVAPEA [IRAK4_Y354_M355V] | 0.507 | 0.79 | 0.888 | 0.911 | 0.427 | 0.445 | 0.653 | 0.433 | 0.558 | 0.412 | 0.424 | 0.41 | 0.392 | 0.938 | 0.76 | 0.605
EWQQTYTFDSG [JUP_Y20_YF] | 1.02 | 1.02 | 1.06 | 0.904 | 0.668 | 0.485 | 0.546 | 5.44 | 0.494 | 0.965 | 0.425 | 0.78 | 3.03 | 0.881 | 0.799 | 0.677
GDFLSYREFHL [ERBIN_Y1107_S1112L_YF] | 0.792 | 0.824 | 0.915 | 0.956 | 0.423 | 0.527 | 0.805 | 0.543 | 0.599 | 0.501 | 0.737 | 0.653 | 0.467 | 0.786 | 0.845 | 0.556
FQEPVYSVAFS [TBL1X_Y509_H504Y_YF] | 3.49 | 0.925 | 4.02 | 3.7 | 11.7 | 24.6 | 27.4 | 7.54 | 18.1 | 3.68 | 16.6 | 10.2 | 11.8 | 0.812 | 0.926 | 0.469
